Test results from patent publication US20090041755A1, “Methods and Compositions For PDGF-D Activation and Inhibition” (Ludwig Institute For Cancer Research, priority 2005, published 2009).

Key:
[1] = target: chimeric PDGF-C/PDGF-D molecule with CUB domain from PDGF-C and growth factor domain from PDGF-D (UniProt Q9NRA1)
[2] = target: chimeric PDGF-D/PDGF-C molecule with CUB domain from PDGF-D and growth factor domain from PDGF-C (UniProt Q9GZP0)
latent PDGF-CC = latent PDGF-CC (Homo sapiens, UniProt Q9NRA1); details: cited from earlier work
Sequence of latent PDGF-CC (Q9NRA1 23-345): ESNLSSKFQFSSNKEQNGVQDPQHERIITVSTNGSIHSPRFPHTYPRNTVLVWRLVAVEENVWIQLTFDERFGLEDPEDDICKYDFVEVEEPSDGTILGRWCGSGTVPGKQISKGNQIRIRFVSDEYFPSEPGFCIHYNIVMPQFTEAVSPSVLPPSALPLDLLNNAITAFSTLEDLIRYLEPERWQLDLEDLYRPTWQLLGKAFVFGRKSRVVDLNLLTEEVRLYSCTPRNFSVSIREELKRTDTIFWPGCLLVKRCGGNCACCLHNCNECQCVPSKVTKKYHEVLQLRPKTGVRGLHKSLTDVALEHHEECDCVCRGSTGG

Sequence of chimeric PDGF-D/PDGF-C molecule with CUB domain from PDGF-D and growth factor domain from PDGF-C (Q9GZP0 other isoform, or with tags, fused parts or gaps mutant): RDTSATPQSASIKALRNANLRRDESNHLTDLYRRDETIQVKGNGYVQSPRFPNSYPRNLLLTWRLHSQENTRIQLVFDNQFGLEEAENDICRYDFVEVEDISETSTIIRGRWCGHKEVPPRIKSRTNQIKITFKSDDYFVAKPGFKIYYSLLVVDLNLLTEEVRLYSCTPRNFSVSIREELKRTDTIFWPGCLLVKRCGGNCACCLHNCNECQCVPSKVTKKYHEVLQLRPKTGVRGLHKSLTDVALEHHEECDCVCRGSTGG
Sequence of chimeric PDGF-C/PDGF-D molecule with CUB domain from PDGF-C and growth factor domain from PDGF-D (Q9NRA1 whole entry, looked up, change not shown, the tested form may be a part): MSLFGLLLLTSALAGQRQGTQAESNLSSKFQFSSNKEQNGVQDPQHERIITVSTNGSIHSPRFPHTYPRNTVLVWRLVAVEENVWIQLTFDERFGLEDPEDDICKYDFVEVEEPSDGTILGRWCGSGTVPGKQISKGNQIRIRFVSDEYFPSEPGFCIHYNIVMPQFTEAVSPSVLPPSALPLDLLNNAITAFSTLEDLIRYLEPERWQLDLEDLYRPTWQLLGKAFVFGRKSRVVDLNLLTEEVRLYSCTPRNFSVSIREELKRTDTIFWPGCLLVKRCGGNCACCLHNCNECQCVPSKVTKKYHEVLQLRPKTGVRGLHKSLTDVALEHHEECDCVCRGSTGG

Row | Substance | proteolytic release of the growth factor domain (co-transfection, SDS-PAGE and immunoblot) [1] | proteolytic release of the growth factor domain (co-transfection, SDS-PAGE and immunoblot) [2] | activation of latent PDGF-CC (latent PDGF-CC; Fredriksson et al. 2004) | substrate specificity of the protease (latent PDGF-CC; PDGF-CC versus PDGF-DD)
1 | urokinase plasminogen activator (uPA) | Analysis of all the PDGF-D/PDGF-C chimeric molecules revealed that no released growth factor domain could be visualized using specific antibodies | Analysis of all the PDGF-D/PDGF-C chimeric molecules revealed that no released growth factor domain could be visualized using specific antibodies | – | –
2 | tPA: tissue plasminogen activator, specific activator of PDGF-CC | – | – | activates latent PDGF-CC | specific for PDGF-CC
